The labels stand for the following.
B1: TPR t1 (parent)
chain: GACCAAUCUGCCCUCAGAGCUCGAGAACAUCUUCGGAUGCAGAGGAGGCAGGCUUCGGUGGCGCGAUAGCGCCAACGUCCUCAACCUCCAAUGCAUCCCACCACAUGAUGAUGCCUGAAGAGCCUUGGUUUUUUG

The data set covers variants of B1. Kind of data set: polymerase ribozyme fitness, log enrichment relative to wild type (log ratio); higher = more active; in vitro selection for triplet polymerase activity. In short, it runs like this:
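A single round of triplicate in vitro selection, including frozen incubation at −7 °C, was applied to PCR-built, transcribed mutant libraries of each subunit of a heterodimeric triplet polymerase ribozyme. Illumina sequencing of input and output libraries retained genotypes with ≥10 input reads and ≥1 read per output. Fitness is the base-2 logarithm of genotype enrichment divided by wild-type enrichment, from inverse-variance-weighted replicate averages.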
Turning to C8G U38A A100U, the “polymerase ribozyme fitness (log ratio)” value is -2.56.

Take C8G C104G U116C A121U G122U U129C: the “polymerase ribozyme fitness (log ratio)” value is -7.72. Consider C8G C124A, for which the “polymerase ribozyme fitness (log ratio)” value amounted to 2.31. Then C8U A119G U126G G127U, with -0.0945; and C8G C22G G47A C70U G77U, with -4.84; and C8U A29U U59C A121G, with -1.03. Then C8A U21C G58C C82A U106G U132A, with -1.35; and C8G C12G U59G U129C, with 0.2. In the case of C8U C12U C70G C94A, the “polymerase ribozyme fitness (log ratio)” value was -3.02.

C8G A43U: the “polymerase ribozyme fitness (log ratio)” value is -0.695. Then C8G G52U, with 0.359; and C8A G48U U59G C73G A105C U112C G120A, with -2.35; and C8A C40G, with 0.0349. Then C8A C12U C40A, with -0.186; and C8G G48U, with -0.882. Then C8G G17U A26U G120U, with -2.91; and C8G U21A U38G C76U C88A U112G A121C, with -4.14; and C8G A27G C64U C72U G93U C104A A111U U125C, with -3.56.

For the variant C8U G48C, the “polymerase ribozyme fitness (log ratio)” value amounted to 0.186.

For the variant C8G C20A C82U A100C U112C, the “polymerase ribozyme fitness (log ratio)” value was -3.16.

For the variant C8U G44U C88G U92A, the “polymerase ribozyme fitness (log ratio)” value was -3.81. Then C8U C12A A41U A46G G71A C89U, with -2.07. Then C8U C15U U32C G71U C99U, with -4.38; and C8A C13U U38A C97A, with -6.04; and C8A C64A U112C U125A, with -5.5. For the variant C8U C13A C85A U106C C123A, the “polymerase ribozyme fitness (log ratio)” value was -0.442.

For C8G G58A U96A, the “polymerase ribozyme fitness (log ratio)” value is 0.339.

As to C8G G44C C64U C76A C124G, the “polymerase ribozyme fitness (log ratio)” value is -6.22. Then C8U C20U A37U A43U, with -2.77; and C8A A66U C124G, with 0.659; and C8U A16U A37U G52C C56G C79A G110U U126A, with -4.2. Then C8A A43C G44A C53A C86U G93U, with -2.53; and C8G C13G C98U, with -0.112; and C8G G42A, with -0.64. Then C8U C56U C89A A118U, with -1.04; and C8G C86A A105C, with -1.39; and C8G G71A C89A C97U G120C, with -1.24.

Consider C8A C64U U78A C94G A100U C102A U112A G128A U129A G135C, for which the “polymerase ribozyme fitness (log ratio)” value is -4.75. Then C8G C89A C114U, with -0.406; and C8G C11G A41C C49A, with -0.887.

As for C8A U38A A46C, the “polymerase ribozyme fitness (log ratio)” value was -1.09.

For C8A G65C C115A C123G, the “polymerase ribozyme fitness (log ratio)” value was -4.88. With C8G G63A A83G C85A G122A, the “polymerase ribozyme fitness (log ratio)” value is -1.28. Then C8G G48U C72A, with 0.0646; and C8G G35C U131A, with -5.09. Then C8G A43U C53U U106A, with -1.57; and C8G U92A, with -1.78. Then C8G A91U A95C, with -1.32; and C8A C20A C79A, with -3.7; and C8G A90C A91U A95G, with -1.14.

For C8G U9G C12G C49G A91U, the “polymerase ribozyme fitness (log ratio)” value was -2.4. Then C8U A24G G44U U106C, with -1.81; and C8A C62A U130G, with -0.621; and C8U C12U C64A C123U, with -4.54. Then C8G C11U A16C G44C U59C G60A C115G, with -4.64; and C8G U9C C56G, with 0.364. Then C8A U9G A26G G44A G45U G63U C115A, with -3.15; and C8A G61C A119G U126G, with -2.44; and C8U G44A C56A C72A U81C A111C, with -3.76. As to C8U G52U C56A G77U A121U, the “polymerase ribozyme fitness (log ratio)” value was 1.55. Then C8A A50U U59C G63C, with -4.31. Then C8G C56G G63C U126C, with -3.33; and C8U C104G U106A C124G, with -3.63; and C8A U14G U55A C62U U78A A100C, with -1.37. With C8G U9C C56G G69A, the “polymerase ribozyme fitness (log ratio)” value is -2.35. Then C8U C64U U96C, with -0.074; and C8U C15U G36A A68G C97U G120A, with -1.91. Then C8G C12G A27U C64U, with -1.4. With C8U C82U G113U, the “polymerase ribozyme fitness (log ratio)” value was -2.67.

With C8G G17U U59G C115G A118G, the “polymerase ribozyme fitness (log ratio)” value was 0.49.

On to C8U C49U G71C G117U G120A C124A, for which the “polymerase ribozyme fitness (log ratio)” value is -1.83. Then C8G C22U A43G C88U C97A C99U C101U C102G G110C, with -6.9. Then C8U G17A, with -2.57. Then C8A C13U G36C, with -0.24. On to C8A C72U, for which the “polymerase ribozyme fitness (log ratio)” value stood at 0.071. Then C8U C73A, with 1.41; and C8G G36A G44A, with -1.23. Then C8A G10A G47A, with -1.74. Then C8U G51A C56A G120U, with -3.67; and C8G C102U, with -1.57; and C8G C15U C89G G93A C101U G113C C114U G127C, with -3.86.

As for C8A C94A A119G, the “polymerase ribozyme fitness (log ratio)” value was -0.132.

As to C8G C89A C94G, the “polymerase ribozyme fitness (log ratio)” value is -2.14. Then C8A C53U C56A A75G, with 0.188.

The record behind these values is the RNAGym collection of RNA variant scans (doi:10.1073/pnas.2313332121).
